Where “and” joins values, the source holds several entries; their conditions need not be identical. Equal values may be shown once.
Tests used:
αvβ3 integrin = αvβ3 integrin (Homo sapiens, UniProt P05106+P06756); assay: SPR binding of purified proteins to αvβ3 integrin; conditions: proteins immobilized; integrin 0-200 nM; equilibrium
Procedure: (§1) Determination of binding of the soluble purified proteins (M-CSFM and M-CSFRGD variants) to c-FMS and αvβ3 integrin was performed on a ProteOn XPR36 (Bio-Rad, USA). […] Unbound esters were deactivated with 1 M ethanolamine HCl at pH 8.5, and the temperature was set at 25° C. Then, the chip was rotated, and the human c-FMS soluble proteins (Sino Biological, China) were allowed to flow over the chip at 6 different concentrations (0, 12.5, 25, 50, 100 and 200 nM) at a flow rate of 50 μl/min for 490 s, followed by dissociation for 600 s in PBS+0.005% Tween (PBST). For determining αvβ3 integrin binding, the chip was regenerated using 50 mM NaOH at a flow rate of 100 μl/min and analyzed again for c-FMS binding to make sure that the chip had been regenerated. After making sure the chip is regenerated, and different concentrations of […] proteins (0, 12.5, 25, 50, 100 and 200 nM) were allowed to flow over the chip. The interactions obtained were normalized to the initial protein binding RUs to the chip surface. Then, for each concentration, the KD was obtained from the equilibrium binding phase of the sensorgram. To determine the αvβ3 integrin specificity for each M-CSFRGD variant, a new chip was loaded with different RGD binding integrins, as follows: 8.5 μg of α3β1, 8.5 μg of α4β7, 6 μg of α5β1, 8.5 μg of αvβ5, and 8.5 μg of αvβ3 integrin and 3 μg of BSA as a negative control. […]

αvβ5 integrin = αvβ5 integrin (Homo sapiens, UniProt P06756+P18084, DEL720-799); assay: SPR integrin specificity, immobilized αvβ5; assay type: binding; conditions: variants at 1 μM
Chain of αvβ5 integrin (P06756 31-992 limits assumed, stated change not applied): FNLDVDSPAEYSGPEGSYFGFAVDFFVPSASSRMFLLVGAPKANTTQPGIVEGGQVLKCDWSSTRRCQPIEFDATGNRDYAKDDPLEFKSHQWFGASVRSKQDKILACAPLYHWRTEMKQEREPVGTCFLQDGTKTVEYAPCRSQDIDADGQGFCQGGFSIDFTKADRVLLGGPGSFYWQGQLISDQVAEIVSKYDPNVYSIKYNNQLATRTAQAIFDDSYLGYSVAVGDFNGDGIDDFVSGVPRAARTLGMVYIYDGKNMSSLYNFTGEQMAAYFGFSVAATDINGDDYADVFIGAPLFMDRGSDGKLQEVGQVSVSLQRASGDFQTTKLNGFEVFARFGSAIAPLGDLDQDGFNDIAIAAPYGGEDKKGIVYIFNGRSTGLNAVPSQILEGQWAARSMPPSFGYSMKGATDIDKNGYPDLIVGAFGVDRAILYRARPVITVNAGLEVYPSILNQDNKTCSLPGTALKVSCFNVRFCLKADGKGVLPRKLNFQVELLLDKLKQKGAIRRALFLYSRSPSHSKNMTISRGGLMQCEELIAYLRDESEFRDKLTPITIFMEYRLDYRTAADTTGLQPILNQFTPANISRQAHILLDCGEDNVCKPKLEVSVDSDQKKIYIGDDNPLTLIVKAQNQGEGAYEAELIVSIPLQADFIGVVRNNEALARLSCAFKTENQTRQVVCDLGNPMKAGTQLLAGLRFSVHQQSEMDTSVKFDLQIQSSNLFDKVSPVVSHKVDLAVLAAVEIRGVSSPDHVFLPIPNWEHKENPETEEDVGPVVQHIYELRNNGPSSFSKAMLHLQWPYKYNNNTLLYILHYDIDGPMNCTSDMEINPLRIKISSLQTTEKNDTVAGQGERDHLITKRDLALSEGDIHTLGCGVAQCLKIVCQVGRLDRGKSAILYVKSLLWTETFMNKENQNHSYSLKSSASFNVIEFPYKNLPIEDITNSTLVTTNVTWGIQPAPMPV
Chain of αvβ5 integrin (P18084 24-719 limits assumed, stated change not applied): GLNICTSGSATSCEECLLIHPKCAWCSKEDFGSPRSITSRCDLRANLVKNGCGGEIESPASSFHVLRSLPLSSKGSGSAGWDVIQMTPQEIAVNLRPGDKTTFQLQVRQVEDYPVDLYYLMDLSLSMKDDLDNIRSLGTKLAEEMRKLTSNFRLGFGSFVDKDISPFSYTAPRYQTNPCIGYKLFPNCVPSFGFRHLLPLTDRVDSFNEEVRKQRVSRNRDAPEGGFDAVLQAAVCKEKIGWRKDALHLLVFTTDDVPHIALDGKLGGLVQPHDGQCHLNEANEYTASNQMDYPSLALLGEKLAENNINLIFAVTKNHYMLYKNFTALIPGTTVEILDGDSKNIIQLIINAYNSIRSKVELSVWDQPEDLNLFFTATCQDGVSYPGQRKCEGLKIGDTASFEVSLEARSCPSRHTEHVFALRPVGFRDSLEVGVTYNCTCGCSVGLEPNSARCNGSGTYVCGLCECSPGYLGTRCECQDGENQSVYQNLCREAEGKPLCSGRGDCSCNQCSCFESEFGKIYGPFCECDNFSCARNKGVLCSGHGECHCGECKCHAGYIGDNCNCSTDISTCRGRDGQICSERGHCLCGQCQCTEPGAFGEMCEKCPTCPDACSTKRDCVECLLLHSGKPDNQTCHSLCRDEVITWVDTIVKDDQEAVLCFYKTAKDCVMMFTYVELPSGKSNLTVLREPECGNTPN
Procedure: as §1

[1] = tested on: CTX-I (carboxy-terminal collagen crosslinks); assay: CTX-I serum ELISA in ovariectomized mice (bone resorption); assay type: in vivo, C57 Rcc mice; design: CTX-I serum-concentration: unit not given here; conditions: for CTX-I serum-concentration: 4 days, individual animals, listed as M-CSF 5.6
Procedure: In order to assess the effect of M-CSF variant on bone resorption, 10 weeks old C57 Rcc mice were ovariectomized resulting in a decrease in estrogen secretion similar to what occurs in osteoporosis. Two weeks post-surgery the mice were treated with M-CSF5.6 variant in three concentrations-0.1 mg/kg, 0.5 mg/kg and 15 mg/kg, in order to test the effect on bone resorption and to find the optimal dosage. For a period of 4 days, 0.1 and 0.5 mg/kg M-CSF5.6 treated mice received subcutaneous injections twice a day, while 15 mg/kg M-CSF5.6 treated mice received a daily subcutaneous injection. Mice were sacrificed 18-24 hours after the final injection. The amounts of type I collagen fragments in the blood were measured using CTX-I (carboxy-terminal collagen crosslinks) ELISA.
Animals were randomly divided into 2 control groups (SHAM, PBS) and 4 treatment groups (0.1, 0.5 and 15 mg/kg M-CSF5.6 and 0.1 mg/kg Alendronate as positive control). Except for the SHAM group, all animals were ovariectomized. *, ^, + represent a Haemolytic-serum sample, an unsuccessful ovariectomy procedure (as determined post mortem) and an outlier, respectively. CTX-I serum-concentration values of mice with unsuccessful ovariectomy were excluded from the analysis.

Chain of αvβ3 integrin (P06756 31-992 limits assumed): as the sequence (P06756 31-992 limits assumed, stated change not applied) above
Chain of αvβ3 integrin (P05106 27-718 limits assumed): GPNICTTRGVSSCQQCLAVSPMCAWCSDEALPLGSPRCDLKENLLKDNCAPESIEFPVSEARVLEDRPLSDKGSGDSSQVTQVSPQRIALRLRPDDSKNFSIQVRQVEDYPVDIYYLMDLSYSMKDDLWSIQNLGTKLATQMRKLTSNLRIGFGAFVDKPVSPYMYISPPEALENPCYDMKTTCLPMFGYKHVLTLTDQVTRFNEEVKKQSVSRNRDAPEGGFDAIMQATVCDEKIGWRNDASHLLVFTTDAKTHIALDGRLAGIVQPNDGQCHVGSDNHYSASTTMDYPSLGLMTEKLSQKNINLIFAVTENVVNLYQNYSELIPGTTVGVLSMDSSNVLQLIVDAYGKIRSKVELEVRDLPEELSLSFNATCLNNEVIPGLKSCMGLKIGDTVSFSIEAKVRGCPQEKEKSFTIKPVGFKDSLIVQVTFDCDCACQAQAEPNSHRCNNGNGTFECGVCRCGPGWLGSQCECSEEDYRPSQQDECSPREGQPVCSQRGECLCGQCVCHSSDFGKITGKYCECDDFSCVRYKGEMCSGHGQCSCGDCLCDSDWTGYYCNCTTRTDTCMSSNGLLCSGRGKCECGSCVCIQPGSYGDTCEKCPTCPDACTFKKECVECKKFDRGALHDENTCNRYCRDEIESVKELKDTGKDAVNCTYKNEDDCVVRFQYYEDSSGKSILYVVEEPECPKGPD

KD to αvβ3 integrin (αvβ3 integrin) | Molecule | rank order of αvβ5 integrin binding (αvβ5 integrin) | CTX-I serum-concentration ([1]; 0.1 mg/kg s.c. twice a day, * haemolytic) | CTX-I serum-concentration ([1]; 0.5 mg/kg s.c. twice a day, * haemolytic, ^ unsuccessful ovariectomy, + outlier) | decrease in CTX-I levels compared to the PBS treated animals ([1]; 15 mg/kg) [fold] | CTX-I serum-concentration ([1]; 15 mg/kg s.c. daily, ^ unsuccessful ovariectomy, + outlier) | effect on CTX-I levels at lower doses ([1]; 0.1 and 0.5 mg/kg, hemolytic samples included)
did not bind | M-CSFM: 158 amino acid M-CSF with cysteine at position 31 replaced by serine (SEQ ID NO: 2) (protein) EEVSEYCSHMIGSGHLQSLQRLIDSQMETSSQITFEFVDQEQLKDPVCYLKKAFLLVQDIMEDTMRFRDNTPNAIAIVQLQELSLRLKSCFTKDYEEHDKACVRTFYETPLQLLEKVKNVFNETKNLLDKDWNIFSKNCNNSFAECSSQGHERQSEGS | – | – | – | – | – | –
– | 5.6: bispecific M-CSFRGD variant from sort five; M-CSFM loop replaced by XXXRGDXXX motif; binds c-FMS and αvβ3 integrin (protein, left off: small tags and cut ends) EEVSEYCSHMIGSGHLQSLQRLIDTYPRGDMCSITFEFVDQEQLKDPVCYLKKAFLLVQDIMEDTMRFRDNTPNAIAIVQLQELSLRLKSCFTKDYEEHDKACVRTFYETPLQLLEKVKNVFNETKNLLDKDWNIFSKNCNNSFAECSSQGHERQSEGS | 4.24 is the best αvβ5 integrin followed by 4.22 and 5.6 | 58.19 and 44.06 and 130.4* and 195.2* and 53.32 and 46.69 | 53.33 and 209.7+ and 47.65*^ and 64.67 and 70.37* and 83.09* | ~2 | 33.94 and 33.49 and 214.7^+ and 46.82 and 30.85 and 40.68 | ineffective
